Reference: paper PMC8469155
pKd: −log10 of the molar value. Each block holds one substance with its values, some of them ahead of it.

What was measured:
L19-TNF^S147A (human) = experiment: SEC; Superdex 200 Increase 10/300 column, ÄKTA FPLC, protein dialysed into PBS pH 7.4; peak at 12 mL corresponds to the homotrimer
L19-TNF^WT (human) [1] = experiment: as above
L19-TNF^Q102N (human) = experiment: as above
L19-TNF^I97A (human) [2] = experiment: SPR; BIAcore X100; EDB covalently immobilised on a CM5 chip (1500-2000 RU), L19-TNF protein captured on it through L19-EDB (340 RU); TNFR1 injected for 30 s in a 1:2 dilution series from 1000 nM; PBS pH 7.4; regeneration 10 mM HCl; independent chip for each protein; global fit, 1:1 Langmuir model
L19-TNF^WT (human) [3] = experiment: as above
L19-TNF^Y59F (human) = experiment: SEC; Superdex 200 Increase 10/300 column, ÄKTA FPLC, protein dialysed into PBS pH 7.4; peak at 12 mL corresponds to the homotrimer
[4] = target: tumor necrosis factor receptor 1 (TNFR-1) (UniProt P19438); experiment: SPR; conditions: response read at end of injection (~50-55 s), L19-TNF mutein captured on EDB-coated CM5 chip, read off a plot
L19-TNF^I97A (human) [5] = experiment: SEC; Superdex 200 Increase 10/300 column, ÄKTA FPLC, protein dialysed into PBS pH 7.4; peak at 12 mL corresponds to the homotrimer
[6] = target: alternatively spliced EDB domain of fibronectin (recombinant EDB protein)
L19-TNF^Y119S (human) = experiment: SEC; Superdex 200 Increase 10/300 column, ÄKTA FPLC, protein dialysed into PBS pH 7.4; peak at 12 mL corresponds to the homotrimer

Substance: tumor necrosis factor receptor 1 (TNFR-1) (from UniProt P19438 30-455)
fold faster dissociation rate against L19-TNF^WT (L19-TNF^I97A (human) [2]): 50 fold
pKd (L19-TNF^WT (human) [3]): 8.00

Substance: L19-TNF^WT Q102N
response ([4]; 125 nM TNFR1): 28 RU
response ([4]; 500 nM TNFR1): 45 RU
response ([4]; 1000 nM TNFR1): 45 RU

Substance: L19-TNF^I97A
stoichiometry N (L19-TNF^I97A (human) [5]): 3
EC50 of cytotoxicity on A-375 cells (cell viability, with actinomycin D), 100 nM EDB Coating (M); without EDB coating 2.273 × 10^−9 M [6]: 2.25e-10 M

Substance: L19-TNF^Y119S
stoichiometry N (L19-TNF^Y119S (human)): 3

Results, then the substance that gave them:

stoichiometry N (L19-TNF^S147A (human)): 3
Substance: L19-TNF^S147A

stoichiometry N (L19-TNF^WT (human) [1]): 3
Substance: L19-TNF^WT

stoichiometry N (L19-TNF^Q102N (human)): 3
Substance: L19-TNF^Q102N

stoichiometry N (L19-TNF^Y59F (human)): 3
Substance: L19-TNF^Y59F
